Common to all, as to experiment: cell-based or functional assay
For test [1], the target named is human Kv1.3 (human) (UniProt P22001).
The target in test [2] is human Kv1.1 (human) (UniProt Q09470).
Test [3] has as its target human Kv1.3 (human) (UniProt P22001). The source holds these as a separate data set.

Where two headings read alike, the source gives them in different places. Ends that are not written are not given here.

human Kv1.1 (human), sequence (Q09470 whole entry): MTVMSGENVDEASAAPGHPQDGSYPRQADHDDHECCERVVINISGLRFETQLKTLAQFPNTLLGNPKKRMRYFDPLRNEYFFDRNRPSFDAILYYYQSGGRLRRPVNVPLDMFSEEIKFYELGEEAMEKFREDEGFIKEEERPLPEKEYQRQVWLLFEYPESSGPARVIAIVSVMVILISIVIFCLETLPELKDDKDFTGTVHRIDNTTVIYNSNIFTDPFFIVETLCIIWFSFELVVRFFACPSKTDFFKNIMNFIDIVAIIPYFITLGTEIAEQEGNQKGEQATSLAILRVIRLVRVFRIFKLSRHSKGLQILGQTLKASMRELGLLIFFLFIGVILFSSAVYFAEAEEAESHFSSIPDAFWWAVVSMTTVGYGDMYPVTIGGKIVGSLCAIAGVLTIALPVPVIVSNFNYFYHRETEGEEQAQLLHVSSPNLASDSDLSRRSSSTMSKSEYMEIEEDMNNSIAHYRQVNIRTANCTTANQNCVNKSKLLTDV
human Kv1.3 (human), sequence (P22001 whole entry): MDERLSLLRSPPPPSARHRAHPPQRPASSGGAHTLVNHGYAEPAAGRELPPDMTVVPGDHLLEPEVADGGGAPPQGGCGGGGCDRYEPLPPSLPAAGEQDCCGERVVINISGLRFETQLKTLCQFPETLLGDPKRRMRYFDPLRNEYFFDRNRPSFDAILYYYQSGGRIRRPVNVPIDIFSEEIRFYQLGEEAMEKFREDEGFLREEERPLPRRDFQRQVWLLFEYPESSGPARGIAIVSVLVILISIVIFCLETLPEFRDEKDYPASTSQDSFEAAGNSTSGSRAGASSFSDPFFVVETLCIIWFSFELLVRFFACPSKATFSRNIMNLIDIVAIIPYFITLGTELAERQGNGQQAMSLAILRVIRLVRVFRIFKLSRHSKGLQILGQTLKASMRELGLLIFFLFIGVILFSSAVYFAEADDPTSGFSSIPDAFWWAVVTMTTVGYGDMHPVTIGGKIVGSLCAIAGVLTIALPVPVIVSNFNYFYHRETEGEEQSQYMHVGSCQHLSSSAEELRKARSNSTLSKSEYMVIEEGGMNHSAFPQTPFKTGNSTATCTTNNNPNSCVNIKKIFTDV

20k PEG-OSK1[Ala29, 1Nal34] (peptide): in test [1], the WB/IFNg (IC50, nM), human whole blood worked out at 0.081 nM and the WB/IL-2 (IC50, nM), human whole blood is 0.049 nM.

In test [1], 20k PEG-ShK (peptide) had a WB/IFNg (IC50, nM), human whole blood of 0.065 nM and a WB/IL-2 (IC50, nM), human whole blood of 0.046 nM. E. coli-derived Fc-L-OSK1 (Fc fusion): in test [1], the Kv1.3 IC50 by WCVC (nM), whole cell patch clamp on HEK293/Kv1.3 cells amounted to 3.2 nM. The same measure, in the same setting: in the case of “E. coli-derived Fc-L-ShK[1-35] (Fc fusion)” it was 1.4 nM. In the case of “E. coli-derived Fc-L-ShK[2-35] (Fc fusion)”, in test [1], the Kv1.3 IC50 by IWQ (nM), IonWorks planar patch clamp on CHO/Kv1.3 cells was 2.8 nM and the Kv1.3 IC50 by WCVC (nM), whole cell patch clamp on HEK293/Kv1.3 cells is 1.3 nM. For “E. coli-derived ShK[2-35]-L-Fc (Fc fusion)”, in test [1], the Kv1.3 IC50 by IWQ (nM), IonWorks planar patch clamp on CHO/Kv1.3 cells worked out at 4.9 nM. With “E. coli-derived Shk[1-35]-L-Fc (Fc fusion)”, the Kv1.3 IC50 by IWQ (nM), IonWorks planar patch clamp on CHO/Kv1.3 cells in test [1] stood at 2.4 nM. In turn, “Fc-L5-ShK[2-35] (CHO-derived, bivalent dimeric) (Fc fusion)” returned an IC50, block of outward potassium current, whole cell patch clamp in test [1] of 0.1 nM.

In test [2], Fc-L10-OSK1 (Fc fusion) registered a hKv1.1: IC50 [pM], whole cell patch clamp of 41600 pM. For the molecule “Fc-L10-ShK[2-35] (CHO-derived, bivalent dimeric) (Fc fusion)”, in test [1], the IC50, block of outward potassium current, whole cell patch clamp was 0.115 nM.

In the case of “Fc-L25-ShK[2-35] (CHO-derived, bivalent dimeric) (Fc fusion)”, in test [1], the IC50, whole cell patch clamp on HEK293/Kv1.3 cells amounted to 0.15 nM. In the case of GGGGS-Osk1 (peptide), in test [1], the WB/IFNg (IC50, nM), human whole blood amounted to 2.2 nM and the WB/IL-2 (IC50, nM), human whole blood was 1.36 nM.

Molecule OSK1 (synthetic Osk1 toxin peptide) came in with an IC50, block of outward potassium current, whole cell patch clamp in test [1] of 0.039 nM. In test [1], OSK1-K16, D20 (peptide) came in with a WB/IFNg (IC50, nM), human whole blood of 1.32 nM and a WB/IL-2 (IC50, nM), human whole blood of 1.58 nM.

The molecule PEG-Fc-L10-OSK1, pool 2 (Fc fusion) returned an IC50 Sustained (nM), pool 2 in test [1] of 0.332 nM. Turning to PEG-Fc-L10-OSK1, pool 3 (Fc fusion), the IC50 Sustained (nM), pool 3 in test [1] turned out to be 0.256 nM. In test [1], “PEG-Fc-L10-SHK(2-35), pool 2 (Fc fusion)” yielded an IC50 Sustained (nM), pool 2 of 0.158 nM. Turning to “PEG-Fc-L10-SHK(2-35), pool 3 (Fc fusion)”, the IC50 Sustained (nM), pool 3 in test [1] is 0.175 nM. PEG-OSK1 (peptide) displayed a peak IC50, whole cell patch clamp in test [1] of 1.28 nM.

Synthetic OSK1 (peptide): in test [1], the hKv1.3: IC50 [pM], whole cell patch clamp was found to be 39 pM. In addition, in test [2], the hKv1.1/hKv1.3 (ratio of IC50s, reference hKv1.3) was found to be 4 and the hKv1.1: IC50 [pM], whole cell patch clamp is 160 pM. In test [1], native OSK1 (peptide) gave a Kv1.3 (IC50, pM), whole cell patch clamp ePhys of 39 pM and a Kv1.3 Selectivity (=Kv1.1/Kv.3 IC50) of 5 fold. In test [2], the Kv1.1 (IC50, pM), whole cell patch clamp ePhys came to 202 pM.

B1: 20K PEG-ShK[1-35] (peptide)
peptide: RSCIDTIPKSRCTAFQCKHSMKYRLSFCRKTCGTC
modifications: not fully specified (N-terminus); ends and bridges not checked
Take B1: the peak IC50, whole cell patch clamp in test [3] was 0.169 nM.

B2: ShK[2-35] (synthetic peptide analog) (peptide)
peptide: SCIDTIPKSRCTAFQCKHSMKYRLSFCRKTCGTC
modifications: not fully specified; ends and bridges not checked
As for B2, the IC50, block of outward potassium current, whole cell patch clamp in test [3] came to 0.049 nM.
